Reference: patent US20240092836A1 (GENEFRONTIER, published 2024)
Bridges are numbered along the chain shown (N, C = ends). Where no end group is shown, it is not given here.

T1: Orencia
T1 sequence (chain, INN chains, looked up, looked up): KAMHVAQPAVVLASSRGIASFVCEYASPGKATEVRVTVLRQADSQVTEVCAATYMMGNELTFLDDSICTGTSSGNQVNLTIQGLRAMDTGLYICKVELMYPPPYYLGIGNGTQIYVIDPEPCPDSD

T2: CTLA4 of the CTLA4:B7-1[Biotinylated] Inhibitor Screening Assay Kit (BPS Bioscience) (human, UniProt P16410 37-162, limits assumed)
T2 construct: Kit protein
T2 sequence: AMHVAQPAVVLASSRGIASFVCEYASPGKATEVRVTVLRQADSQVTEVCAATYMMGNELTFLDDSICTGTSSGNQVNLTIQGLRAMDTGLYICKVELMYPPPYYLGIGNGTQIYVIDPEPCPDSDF

T3: CTLA-4 expressed on the cell surface of CHO cells (Homo sapiens (Human), UniProt P16410 36-223)
T3 construct: also called CTLA-4 with its natural structure
T3 sequence: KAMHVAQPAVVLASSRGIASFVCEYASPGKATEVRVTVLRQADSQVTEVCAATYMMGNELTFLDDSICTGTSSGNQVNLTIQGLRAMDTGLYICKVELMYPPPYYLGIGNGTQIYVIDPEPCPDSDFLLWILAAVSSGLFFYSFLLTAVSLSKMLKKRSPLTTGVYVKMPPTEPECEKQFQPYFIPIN


Tests used:
[1] = molecular target: T1, Orencia; assay: ELISA, MBP fusion in E. coli lysate on Orencia
Experimental: (§1) 10 μL of E. coli cultured medium was added with 90 μL of PBS and 40 μL of lysis reagent (20 μL BugBuster Protein Extraction Reagent (Novagen), 20 μL Lysozyme solution 2.5 mg/mL) to lyse E. coli cells for 1 hour at room temperature. […] In parallel, antigen protein was immobilized overnight at 4° C. in 384-well plates at 100 ng/20 μL per well, and each well was washed twice with 100 μL/well of TBST, added with 100 μL/well of 5% skim milk solution (TBST) for blocking for 1 hour at room temperature, and washed twice with 100 μL/well of TBST to obtain antigen-immobilized plates. 20 μL/well of blocking-treated E. coli extract was added to the antigen-immobilized plates and gently stirred at room temperature using a plate mixer. […] The plates were washed 5 times with 100 μL/well of TBST, and binding of cyclic peptides to the antigen was detected by 20 μL/well of chromogenic substrate (0.4 mg/mL 3,3′,5,5′-Tetramethyl-benzidine, 0.01% hydrogen peroxide). After 15 minutes of reaction at room temperature, the reaction was stopped with 20 μL/well of 2N HCl, and absorbance at 450 nm was measured using a plate reader (infinite F200: TECAN) (Table 5).
(§2) An Error-Prone Library was prepared based on H12SSI-Ctla4-3-02, and Affinity Maturation selection experiments were performed. The cyclic peptide genes obtained in each round were subcloned, 94 single colonies were cultured in 96-well plates, and the CTLA-4 binding activity of each MBP-fused cyclic peptide was examined by ELISA.

[2] = molecular target: T1, Orencia; assay: ELISA, signal on Orencia over SA
Experimental: as §1, §2

[3] = molecular target: T2, CTLA4 of the CTLA4:B7-1[Biotinylated] …; assay: CTLA4:B7-1[Biotinylated] Inhibitor Screening Assay Kit, synthetic peptide against biotinylated B7-1
From the text: Inhibitor Screening Assay Kit (BPS Biosciences) as described above.

[4] = molecular target: T3, CTLA-4 expressed on the cell surface of …; assay: FACS on CHO cells expressing CTLA-4, synthetic peptide

Row | Binder | ELISA A450 [1] | S/N(SA) [2] | IC50 [3] | EC50 [4]
1 | GGCMHPFLQTVSHHFCGG (peptide, not shown: large carriers; small tags and cut ends, MBP fusion; also called #22) [C4-302mat-3-1-35] | 0.299 | 5.3 | – | –
2 | GGCMHPFLQVVSHHFCGS (peptide, not shown: large carriers; small tags and cut ends, MBP fusion; also called #26) [C4-302mat-2-1-35] | 0.904 | 17.9 | – | –
3 | GGCMHPFLQVVSHHFCGG (peptide, not shown: large carriers; small tags and cut ends, MBP fusion; also called #27) [C4-302mat-2-100-4] | 0.545 | 9.3 | – | –
4 | GGCIHPFLQVVSHHFCGG (peptide, not shown: large carriers; small tags and cut ends, MBP fusion; also called #28) [C4-302mat-1-1-21] | 0.155 | 2.7 | – | –
5 | GGCVHPFLQVVSHHFCGG (peptide, not shown: large carriers; small tags and cut ends, MBP fusion; also called #29) [C4-302mat-1-100-23] | 0.25 | 5.4 | – | –
6 | GGCMHPFLQVASHHFCGG (peptide, not shown: large carriers; small tags and cut ends, MBP fusion) [C4-302mat-2-1-40] | 0.366 | 6.9 | – | –
7 | GGCMHPYLQVVSHHFCGR (peptide, not shown: large carriers; small tags and cut ends, MBP fusion) [C4-302mat-3-1-2] | 1.45 | 21.9 | – | –
8 | GGCMHPFLRVVSHHFCGG (peptide, not shown: large carriers; small tags and cut ends, MBP fusion; also called #32) [C4-302mat-1-1-37] | 0.665 | 14.2 | – | –
9 | GGCMHPFLRVVSHHFCGR (peptide, not shown: large carriers; small tags and cut ends, MBP fusion; also called #33) [C4-302mat-3-1-14] | 0.985 | 15.5 | – | –
10 | GGCKHPFLRVVSHHFCRR (peptide, not shown: large carriers; small tags and cut ends, MBP fusion; also called #34) [C4-302mat-2-1-12] | 0.51 | 8.5 | – | –
11 | GGCMHPFLRIVSQHFCRR (peptide, not shown: large carriers; small tags and cut ends, MBP fusion; also called #35) [C4-302mat-2-1-24] | 0.14 | 2.4 | – | –
12 | GGCMHPFLKIASHHFCGG (peptide, not shown: large carriers; small tags and cut ends, MBP fusion; also called #36) [C4-302mat-3-1-8] | 0.555 | 8.2 | – | –
13 | GGCMHPFLLVASHHFCGV (peptide, not shown: large carriers; small tags and cut ends, MBP fusion) [C4-302mat-2-1-37] | 0.12 | 2.3 | – | –
14 | GSCMHPFLLVASHHFCRG (peptide, not shown: large carriers; small tags and cut ends, MBP fusion; also called #38) [C4-302mat-2-100-33] | 0.117 | 2.3 | – | –
15 | GGCMHPYLLVASHHFCER (peptide, not shown: large carriers; small tags and cut ends, MBP fusion; also called #39) [C4-302mat-3-1-9] | 0.574 | 8.8 | – | –
16 | GGCMHPYLLVVSHHFCGR (peptide, not shown: large carriers; small tags and cut ends, MBP fusion; also called #40) [C4-302mat-2-100-24] | 0.227 | 4 | – | –
17 | GGCMHPYLLVVSRHFCGR (peptide, not shown: large carriers; small tags and cut ends, MBP fusion; also called #41) [C4-302mat-3-1-15] | 0.351 | 5.4 | – | –
18 | GDCKHPYLLTVSHHFCGR (peptide, not shown: large carriers; small tags and cut ends, MBP fusion; also called #42) [C4-302mat-3-1-25] | 0.264 | 4.3 | – | –
19 | GGCMHPFLLVVSRHFCGR (peptide, not shown: large carriers; small tags and cut ends, MBP fusion) [C4-302mat-2-100-40] | 0.204 | 3.9 | – | –
20 | GGCMHPFLLTVSRHFCGG (peptide, not shown: large carriers; small tags and cut ends, MBP fusion; also called #44) [C4-302mat-3-1-11] | 0.412 | 8.1 | – | –
21 | GGCKHPFLLIVSHHFCGR (peptide, not shown: large carriers; small tags and cut ends, MBP fusion; also called #45) [C4-302mat-3-100-39] | 0.136 | 2.3 | – | –
22 | GCMHPFLPIVSHHFCER (disulfide 2-15 (inferred), chemically synthesised, glycine added to the N-terminus; also called synthesized peptide (Clone No. #19)) [Gly-clone #19: GCMHPFLPIVSHHFCER] | – | – | 11.5 µM | –
23 | CMHPFLPIVSHHFCER (disulfide 1-14 (inferred); also: form used in FACS not given here: biotinylated or N-terminal Gly) [No. #19 synthetic peptide used in FACS] | – | – | – | 0.47 µM
24 | GGCMHPFLLVVSHHFCGG (peptide, not shown: large carriers; small tags and cut ends, MBP fusion; also called original clone; Original) [H12SSI-Ctla4-3-02 (MBP fusion)] | 0.228 | 4.3 | – | –

Row | Binder | ELISA A450 [1] | S/N(SA) [2] | IC50 [3] | EC50 [4]
25 | GGCMHPFLPVVSHHFCGG (peptide, not shown: large carriers; small tags and cut ends, MBP fusion) [C4-302mat-1-1-24] | 0.78 | 14.7 | – | –
26 | GGCMHPFLPVVSHHFCRG (peptide, not shown: large carriers; small tags and cut ends, MBP fusion) [C4-302mat-2-100-18] | 0.857 | 16.1 | – | –
27 | GGCMHPFLPVVSHHFCGA (peptide, not shown: large carriers; small tags and cut ends, MBP fusion) [C4-302mat-3-1-48] | 0.903 | 14.6 | – | –
28 | GGCMHPFLPVVSHHFCGR (peptide, not shown: large carriers; small tags and cut ends, MBP fusion) [C4-302mat-3-100-37] | 1.17 | 18 | – | –
29 | GGCMHPFLPVASHHFCGG (peptide, not shown: large carriers; small tags and cut ends, MBP fusion) [C4-302mat-1-1-35] | 0.534 | 11.2 | – | –
30 | GGCMHPFLPVASHHFCGR (peptide, not shown: large carriers; small tags and cut ends, MBP fusion; also called #6) [C4-302mat-3-1-22] | 1.11 | 18.9 | – | –
31 | GGCMHPFLPVASHHFCAG (peptide, not shown: large carriers; small tags and cut ends, MBP fusion) [C4-302mat-3-100-27] | 0.927 | 16.6 | – | –
32 | GGCLHPFLPVVSHHFCGD (peptide, not shown: large carriers; small tags and cut ends, MBP fusion; also called #8) [C4-302mat-2-1-2] | 1.2 | 23.5 | – | –
33 | GGCLHPFLPLVSHHFCGG (peptide, not shown: large carriers; small tags and cut ends, MBP fusion; also called #9) [C4-302mat-2-1-38] | 0.807 | 16.4 | – | –
34 | GGCLHPFLPIVSHHFCGR (peptide, not shown: large carriers; small tags and cut ends, MBP fusion; also called clone #10; No. #10) [C4-302mat-3-100-44] | 1.14 | 18.5 | – | –
35 | GGCRHPFLPIVSRHFCRG (peptide, not shown: large carriers; small tags and cut ends, MBP fusion; also called #11) [C4-302mat-3-1-45] | 0.689 | 11.2 | – | –
36 | GGCVHPFLPVVSHHFCRG (peptide, not shown: large carriers; small tags and cut ends, MBP fusion; also called #12) [C4-302mat-3-100-20] | 0.221 | 3.7 | – | –
37 | GGCKHPFLPVVSHHFCGG (peptide, not shown: large carriers; small tags and cut ends, MBP fusion; also called #13) [C4-302mat-3-100-9] | 0.779 | 14.4 | – | –
38 | GGCKHPYLPVASHHFCRG (peptide, not shown: large carriers; small tags and cut ends, MBP fusion; also called #14) [C4-302mat-3-1-10] | 0.586 | 10.3 | – | –
39 | GGCMHPYLPVISHHFCGG (peptide, not shown: large carriers; small tags and cut ends, MBP fusion; also called #15) [C4-302mat-2-1-27] | 0.785 | 13.7 | – | –
40 | GGCMHPYLPVISHHFCGR (peptide, not shown: large carriers; small tags and cut ends, MBP fusion; also called #16) [C4-302mat-3-100-12] | 1.18 | 19.4 | – | –
41 | GGCMHPFLPVTSHHFCGG (peptide, not shown: large carriers; small tags and cut ends, MBP fusion; also called #17) [C4-302mat-2-1-3] | 0.802 | 14.8 | – | –
42 | GGCMHPFLPIVSHHFCGS (peptide, not shown: large carriers; small tags and cut ends, MBP fusion; also called #18) [C4-302mat-2-100-27] | 1.29 | 25.2 | – | –
43 | GGCMHPFLPIASLHFCGR (peptide, not shown: large carriers; small tags and cut ends, MBP fusion; also called #20) [C4-302mat-3-1-23] | 1.21 | 19.7 | – | –
44 | GGCMHPFLPILSHHFCAG (peptide, not shown: large carriers; small tags and cut ends, MBP fusion; also called #21) [C4-302mat-3-1-32] | 0.656 | 11.4 | – | –
45 | GSCMHPFLPVASRHFCGR (peptide, not shown: large carriers; small tags and cut ends, MBP fusion; also called #23) [C4-302mat-3-1-31] | 0.868 | 13.2 | – | –
46 | GGCMHPFLPVVSRHFCGG (peptide, not shown: large carriers; small tags and cut ends, MBP fusion; also called #24) [C4-302mat-3-1-5] | 0.438 | 5.9 | – | –
47 | GGCMHPFLPVVSRHFCGR (peptide, not shown: large carriers; small tags and cut ends, MBP fusion; also called #25) [C4-302mat-3-1-12] | 0.95 | 17.9 | – | –
